Substrate in series [1]: Nc1nc2c(ncn2[C@@H]2O[C@H](COP(=O)(O)OP(=O)(O)OP(=O)(O)O)[C@@H](O)[C@H]2O)c(=O)[nH]1
The experiment in a line: fluorimetric neopterin detection after iodine oxidation and alkaline phosphatase. The format is biochemical, Helicobacter pylori. Particulars: 100 mM sodium citrate pH 4.0, 30°C, 2.5 mM EDTA. The text has this: fluorimetric neopterin detection after iodine oxidation and alkaline phosphatase on HP0959

Substrate in series [2]: Nc1nc2c(ncn2[C@@H]2O[C@H](COP(=O)(O)OP(=O)(O)OP(=O)(O)O)[C@@H](O)[C@H]2O)c(=O)[nH]1
Description: phosphate release, malachite green. It is filed as biochemical, Helicobacter pylori. The settings on record: 10 mM MgCl2, 10% glycerol, 100 mM sodium acetate pH 6.0, 30°C. The source says:
phosphate release, malachite green on HP1079

Substrate in series [3]: Nc1ncnc2nc[nH]c12
The experiment in a line: purified protein. The format is biochemical, Helicobacter pylori. The settings on record: 100 mM HEPES pH 7.5, 30°C, native protein.

Substrate in series [4]: Cc1cc(=O)oc2cc(NC(=O)[C@H](CCCNC(=N)N)NC(=O)[C@@H](N)Cc3ccccc3)ccc12
Description: purified protein. Particulars: 100 mM sodium citrate pH 4.5, 30°C, 5 mM CaCl2, 0.1% Brij.

Substrate in series [5]: [H][C@@]12COP(=O)(O)O[C@@]1([H])[C@@H](O)[C@H](n1cnc3c(=O)[nH]c(N)nc31)O2
Description: alkaline phosphatase-coupled phosphate release, malachite green. The format is biochemical, Helicobacter pylori. The settings on record: 0.1 mM MnCl2, pH 4.0-4.5, 30°C.

Substrate in series [6]: O=[N+]([O-])c1ccc(OP(=O)(O)Oc2ccc([N+](=O)[O-])cc2)cc1
The experiment in a line: purified protein. The settings on record: 1.0 mM MnCl2, 100 mM sodium citrate pH 4.5 (4.0 in Figure 1 legend), 30°C. The format is biochemical, Helicobacter pylori.

B1: HP0959 (Helicobacter pylori 26695) (protein)
chain: MALVKEVLVVLNRLSPFELQESWDNSGLNVGSENSEFSEIVACLEITLKIALNAPQNALIITHHPLIFKPLKTLNDEIYPGNILKILIQKNVSVISMHTNFDKTHLNKHFAHALLEFDGLVEKGLMLVKENANIEFDALVKKIKSSLGVGSLACVKSSQTIKDLAFVCGSGASMFSSLKAQSCLITGDVKYHDAMIAQSLGISLIDATHYYSERGFALIVAEILHSFNYLVTIENFKNPLQII
notes: native protein captured with GTP/dihydroneopterin triphosphate-coated nano-particles (co-captured with HP0803); His6 recombinant also active
The term Km denotes the substrate concentration at which the rate is half of its maximum. One may read the Vmax as the top rate of the reaction or transport when substrate is in excess. Usually kcat stands for the maximal rate divided by the concentration of active sites. In general, kcat/Km refers to the turnover number divided by the Michaelis constant. In the case of B1, in series [1], the Km was found to be 40 ± 5 µM, the maximum rate (Vmax) amounted to 1420 µM/min, the kcat came out at 43.2 ± 0.483 s⁻¹ and the specificity constant (kcat/Km) amounted to 1.08e+06 M⁻¹ s⁻¹.

B2: HP1079 (Helicobacter pylori 26695) (protein)
chain: MIQSVRIKNFKNFKNTKIDGFTKLNIITGQNNAGKSNLLEALYYLVGKSMHPCTNVLEIYDNIRKEPLTSESKSLMFYGLDTKEEIQIVTTLDNNQTLDLQIKFIASENQKVIESQIIPTAEQTQMSSQLNFTLKKNNEEIYNDHLNIAKVPNFPPIPNQSGYNRQFKNFDSNQLQKLLPFESAVIIPSDVVYRQAHMIQAVSKICSNNQLEEELNKHLNQFDNNIQAISFNTNNQLKLKVKDIKEKVPLSVFGDGLKKYLHIVSAFMADNAKTIYIDEVENGLHFSRMRLLLKNTIDFINNNKDGNLQVFMTTHSQEFIEILDQVIREKDFAHQTKLFCLKQDDQYVIPRTYYGENLEYYFENEENLFG
notes: native protein captured with GTP-coated nano-particles; His6 recombinant also made
On to B2, for which, in series [2], the Km was 580 ± 50 µM, the catalytic constant (kcat) was 0.0095 ± 0.002 s⁻¹ and the kcat/Km worked out at 20 M⁻¹ s⁻¹.

B3: HP0267 (native protein) (Helicobacter pylori 26695) (protein)
chain: MQEIIGASLVFLCNEKCEVLEDYGVVFDEKIVEIGDYQSLTLKYPHLKAQFFENSVLLPAFINAHTHFEFSNNKASFDYGSFSGWLGSVLNNGGAILENCQGAIQNAISTQLKSGVGSVGAISNHLIEVNLLKESPLNAVVFLEFLGSSYSLEKLKAFEAKFKELKDLEDKKLKAALAVHAPYSVQKDMALSVIQLAKDSQSLLSTHFLESLEELEWVENSKGWFENFYQHFLKESHFKSLYKGANDYIDMFKDTHTLFVHNQFASLEALKRIKSQVKNAFLITCPFSNRLLSGQALDLERTKEAGLSVSVATDGLSSNISLSLLDELRAFLLTHNMPLLELAKIALLGATRHGAKALALNNGEIEANKRADLSVFGFNEKFTKEQAILQFLLHAKEVECLFLGGKRVI
notes: native protein captured from H. pylori lysate with adenine-coated gold nano-particles, gel filtration; no tag
As for B3, in series [3], the Km was 2040 ± 160 µM, the maximum rate (Vmax) was 3 µM/min, the turnover number (kcat) is 0.00783 ± 0.00217 s⁻¹ and the specificity constant (kcat/Km) was determined as 4 M⁻¹ s⁻¹.

B4: HP1037 (Helicobacter pylori 26695) (protein)
chain: MKGLERESHFTLNENAMFFECAYSCDNALFLQLDDRSFFITDSRYTQEAKESVQPKNGVLAEVVESSDLVQSAIDLIVKSSVKKLFFDPNQVNLQTYKRLNSALGDKVALEGVPSYHRQKRIIKNEHEIQLLKKSQALNVEAFENFAEYVKKIFDEKESLSERYLQHKVKDFLTREGVYDLSFEPILALNANASKPHALPSAKDFLKAEHSILLDMGIKYERYCSDRTRTAFFDPKDFVFKREQSFKDKERQKIYDIVKEAQEKAISGIRAGMTGKEADSLARGVISDYGYGQYFTHSTGHGIGLDIHELPYISSRSETILEEGMVFSVEPGIYIPGFFGVRIEDLVVIKNSRSELL
For the protein B4, in series [4], the Michaelis-Menten constant (Km) came out at 7430 ± 360 µM, the Vmax was 750 µM/min, the kcat is 0.17 s⁻¹ and the specificity constant (kcat/Km) worked out at 20 M⁻¹ s⁻¹.

B5: HP1042 (Helicobacter pylori 26695) (protein)
chain: MMQVYHLSHIDLDGYACQLVSKQFFKNIQCYNANYGREVSARIYEILNAIAQSKESEFLILVSDLNLNLNEAEYLQDKIQEHRLQNKNIQIQLLDHHISGKEVAESFHWYFLDINRCATKIVYEFLKKHYAILEPKNTTWLEPLVEMVNSVDIWDTQGYGFELGKVCMRMINQSSELNRFMFDDENRNYKLKLLEEVKNYLFLENAPVAYDNDLFKLKKIALGGDPDAETMDNISSNAQTHLLSLKKHDCSVYYQDKKGFLSYSMGGISVLANLFLTQNPDFDFYMDVNAKGNVSLRANGNCDVCELSQMCFNGGGHRNASGGKIDGFRESFNYRDIKEQIEEIFNNA
notes: native protein captured with cAMP-coated nano-particles; His6 recombinant also made
As for B5, in series [5], the Michaelis constant (Km) is 820 ± 150 µM, the maximal velocity (Vmax) was 5130 µM/min, the turnover number (kcat) was 15.9 ± 1.37 s⁻¹ and the kcat/Km came to 19500 M⁻¹ s⁻¹. In series [6], the Michaelis-Menten constant (Km) was 530 ± 40 µM, the Vmax stood at 1130 µM/min, the kcat was 18.1 ± 0.2 s⁻¹ and the catalytic efficiency (kcat/Km) was 34100 M⁻¹ s⁻¹.

The values above are taken from paper PMC3688963, “Biochemical Characterization of Hypothetical Proteins from Helicobacter pylori” (PLoS ONE, 2013).
